Measurements: the supplement of paper PMC5998384

How the values were obtained:
HeLa Kyoto [1] = experiment: thermal stability score vs G1/S (z-score of summed log2 fold changes over temperatures); higher = more thermally stable than in G1/S
HeLa Kyoto [2] = experiment: solubility change mitosis vs G1/S (difference of NP-40 vs SDS log2 ratios) (log2 ratio difference); higher = more soluble in mitosis
HeLa Kyoto [3] = experiment: solubility in G1/S (NP-40 vs SDS abundance) (log2 ratio); higher = more soluble; details: cell cycle stage: G1/S
HeLa Kyoto [4] = experiment: melting temperature (median over replicates), in situ; higher = more thermally stable
[5] = cell cycle stage: early G1 (4.5 h after nocodazole release)
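Throughout, for melting temperature (median over replicates), in situ: HeLa Kyoto cells synchronized by double thymidine or nocodazole block, proteins quantified by TMT10plex mass spectrometry, three independent biological replicates.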
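Throughout, for solubility change mitosis vs G1/S (difference of NP-40 vs SDS log2 ratios): synchronized HeLa Kyoto cells (double thymidine block for G1/S, nocodazole release for mitosis), protein amounts in NP-40 versus SDS lysates quantified by mass spectrometry, three biological replicates.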
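Throughout, for solubility in G1/S (NP-40 vs SDS abundance): HeLa Kyoto cells arrested at G1/S by double thymidine block, proteins quantified by TMT10plex mass spectrometry in mild NP-40 versus SDS extracts, three biological replicates.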
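Throughout, for thermal stability score vs G1/S (z-score of summed log2 fold changes over temperatures): synchronized HeLa Kyoto cells, proteins quantified by TMT10plex mass spectrometry, three biological replicates, mitosis taken 0.5 h after nocodazole release, G1/S directly after double thymidine block.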

MAANMYRVGDYVYFENSSSNPYLVRRIEELNKTANGNVEAKVVCLFRRRDISSSLNSLADSNAREFEEESKQPGVSEQQRHQLKHRELFLSRQFESLPATHIRGKCSVTLLNETDILSQYLEKEDCFFYSLVFDPVQKTLLADQGEIRVGCKYQAEIPDRLVEGESDNRNQQKMEMKVWDPDNPLTDRQIDQFLVVARAVGTFARALDCSSSIRQPSLHMSAAAASRDITLFHAMDTLQRNGYDLAKAMSTLVPQGGPVLCRDEMEEWSASEAMLFEEALEKYGKDFNDIRQDFLPWKSLASIVQFYYMWKTTDRYIQQKRLKAAEADSKLKQVYIPTYTKPNPNQIISVGSKPGMNGAGFQKGLTCESCHTTQSAQWYAWGPPNMQCRLCASCWIYWKKYGGLKTPTQLEGATRGTTEPHSRGHLSRPEAQSLSPYTTSANRAKLLAKNRQTFLLQTTKLTRLARRMCRDLLQPRRAARRPYAPINANAIKAECSIRLPKAAKTPLKIHPLVRLPLATIVKDLVAQAPLKPKTPRGTKTPINRNQLSQNRGLGGIMVKRAYETMAGAGVPFSANGRPLASGIRSSSQPAAKRQKLNPADAPNPVVFVATKDTRALRKALTHLEMRRAARRPNLPLKVKPTLIAVRPPVPLPAPSHPASTNEPIVLED [MTA2]
thermal stability score (HeLa Kyoto [1]; [5]): 0.686 | thermal stability score (HeLa Kyoto [1]; cell cycle stage: mitosis): 5.69 | solubility change mitosis (log2) (HeLa Kyoto [2]): -0.00514 | solubility in G1/S (log2) (HeLa Kyoto [3]): -0.0629 | melting temperature (HeLa Kyoto [4]; cell cycle stage: G1/S): 48.4 °C | melting temperature (HeLa Kyoto [4]; cell cycle stage: mitosis): 49.5 °C

MAANYSSTSTRREHVKVKTSSQPGFLERLSETSGGMFVGLMAFLLSFYLIFTNEGRALKTATSLAEGLSLVVSPDSIHSVAPENEGRLVHIIGALRTSKLLSDPNYGVHLPAVKLRRHVEMYQWVETEESREYTEDGQVKKETRYSYNTEWRSEIINSKNFDREIGHKNPSAMAVESFMATAPFVQIGRFFLSSGLIDKVDNFKSLSLSKLEDPHVDIIRRGDFFYHSENPKYPEVGDLRVSFSYAGLSGDDPDLGPAHVVTVIARQRGDQLVPFSTKSGDTLLLLHHGDFSAEEVFHRELRSNSMKTWGLRAAGWMAMFMGLNLMTRILYTLVDWFPVFRDLVNIGLKAFAFCVATSLTLLTVAAGWLFYRPLWALLIAGLALVPILVARTRVPAKKLE [TMEM43]
thermal stability score (HeLa Kyoto [1]; [5]): 3.06 | thermal stability score (HeLa Kyoto [1]; cell cycle stage: mitosis): 4.18 | solubility change mitosis (log2) (HeLa Kyoto [2]): -0.244 | solubility in G1/S (log2) (HeLa Kyoto [3]): -0.206 | melting temperature (HeLa Kyoto [4]; cell cycle stage: G1/S): 53.5 °C | melting temperature (HeLa Kyoto [4]; cell cycle stage: mitosis): 53.1 °C

MAAPAQQTTQPGGGKRKGKAQYVLAKRARRCDAGGPRQLEPGLQGILITCNMNERKCVEEAYSLLNEYGDDMYGPEKFTDKDQQPSGSEGEDDDAEAALKKEVGDIKASTEMRLRRFQSVESGANNVVFIRTLGIEPEKLVHHILQDMYKTKKKKTRVILRMLPISGTCKAFLEDMKKYAETFLEPWFKAPNKGTFQIVYKSRNNSHVNREEVIRELAGIVCTLNSENKVDLTNPQYTVVVEIIKAVCCLSVVKDYMLFRKYNLQEVVKSPKDPSQLNSKQGNGKEAKLESADKSDQNNTAEGKNNQQVPENTEELGQTKPTSNPQVVNEGGAKPELASQATEGSKSNENDFS [THUMPD1]
thermal stability score (HeLa Kyoto [1]; [5]): 0.34 | thermal stability score (HeLa Kyoto [1]; cell cycle stage: mitosis): 2.04 | solubility change mitosis (log2) (HeLa Kyoto [2]): -0.0115 | solubility in G1/S (log2) (HeLa Kyoto [3]): 0.555 | melting temperature (HeLa Kyoto [4]; cell cycle stage: G1/S): 53.7 °C | melting temperature (HeLa Kyoto [4]; cell cycle stage: mitosis): 54.3 °C

MAAPEERDLTQEQTEKLLQFQDLTGIESMDQCRHTLEQHNWNIEAAVQDRLNEQEGVPSVFNPPPSRPLQVNTADHRIYSYVVSRPQPRGLLGWGYYLIMLPFRFTYYTILDIFRFALRFIRPDPRSRVTDPVGDIVSFMHSFEEKYGRAHPVFYQGTYSQALNDAKRELRFLLVYLHGDDHQDSDEFCRNTLCAPEVISLINTRMLFWACSTNKPEGYRVSQALRENTYPFLAMIMLKDRRMTVVGRLEGLIQPDDLINQLTFIMDANQTYLVSERLEREERNQTQVLRQQQDEAYLASLRADQEKERKKREERERKRRKEEEVQQQKLAEERRRQNLQEEKERKLECLPPEPSPDDPESVKIIFKLPNDSRVERRFHFSQSLTVIHDFLFSLKESPEKFQIEANFPRRVLPCIPSEEWPNPPTLQEAGLSHTEVLFVQDLTDE [FAF2]
thermal stability score (HeLa Kyoto [1]; [5]): 2.25 | thermal stability score (HeLa Kyoto [1]; cell cycle stage: mitosis): 3.16 | solubility change mitosis (log2) (HeLa Kyoto [2]): -0.13 | solubility in G1/S (log2) (HeLa Kyoto [3]): -0.0258 | melting temperature (HeLa Kyoto [4]; cell cycle stage: G1/S): 49.9 °C | melting temperature (HeLa Kyoto [4]; cell cycle stage: mitosis): 50.4 °C

MAAPEPLRPRLCRLVRGEQGYGFHLHGEKGRRGQFIRRVEPGSPAEAAALRAGDRLVEVNGVNVEGETHHQVVQRIKAVEGQTRLLVVDQETDEELRRRQLTCTEEMAQRGLPPAHDPWEPKPDWAHTGSHSSEAGKKDVSGPLRELRPRLCHLRKGPQGYGFNLHSDKSRPGQYIRSVDPGSPAARSGLRAQDRLIEVNGQNVEGLRHAEVVASIKAREDEARLLVVDPETDEHFKRLRVTPTEEHVEGPLPSPVTNGTSPAQLNGGSACSSRSDLPGSDKDTEDGSAWKQDPFQESGLHLSPTAAEAKEKARAMRVNKRAPQMDWNRKREIFSNF [SLC9A3R2]
thermal stability score (HeLa Kyoto [1]; [5]): -1.69 | thermal stability score (HeLa Kyoto [1]; cell cycle stage: mitosis): -3.57 | solubility change mitosis (log2) (HeLa Kyoto [2]): -0.0543 | solubility in G1/S (log2) (HeLa Kyoto [3]): 0.422 | melting temperature (HeLa Kyoto [4]; cell cycle stage: G1/S): 53.6 °C | melting temperature (HeLa Kyoto [4]; cell cycle stage: mitosis): 54.2 °C

MAAPGSARRPLLLLLLLLLLGLMHCASAAMFMVKNGNGTACIMANFSAAFSVNYDTKSGPKNMTFDLPSDATVVLNRSSCGKENTSDPSLVIAFGRGHTLTLNFTRNATRYSVQLMSFVYNLSDTHLFPNASSKEIKTVESITDIRADIDKKYRCVSGTQVHMNNVTVTLHDATIQAYLSNSSFSRGETRCEQDRPSPTTAPPAPPSPSPSPVPKSPSVDKYNVSGTNGTCLLASMGLQLNLTYERKDNTTVTRLLNINPNKTSASGSCGAHLVTLELHSEGTTVLLFQFGMNASSSRFFLQGIQLNTILPDARDPAFKAANGSLRALQATVGNSYKCNAEEHVRVTKAFSVNIFKVWVQAFKVEGGQFGSVEECLLDENSMLIPIAVGGALAGLVLIVLIAYLVGRKRSHAGYQTI [LAMP1]
thermal stability score (HeLa Kyoto [1]; [5]): -2.35 | thermal stability score (HeLa Kyoto [1]; cell cycle stage: mitosis): -3.71 | solubility change mitosis (log2) (HeLa Kyoto [2]): 0.0596 | solubility in G1/S (log2) (HeLa Kyoto [3]): 0.0646 | melting temperature (HeLa Kyoto [4]; cell cycle stage: G1/S): 59.9 °C | melting temperature (HeLa Kyoto [4]; cell cycle stage: mitosis): 61.1 °C

MAAPLRIQSDWAQALRKDEGEAWLSCHPPGKPSLYGSLTCQGIGLDGIPEVTASEGFTVNEINKKSIHISCPKENASSKFLAPYTTFSRIHTKSITCLDISSRGGLGVSSSTDGTMKIWQASNGELRRVLEGHVFDVNCCRFFPSGLVVLSGGMDAQLKIWSAEDASCVVTFKGHKGGILDTAIVDRGRNVVSASRDGTARLWDCGRSACLGVLADCGSSINGVAVGAADNSINLGSPEQMPSEREVGTEAKMLLLAREDKKLQCLGLQSRQLVFLFIGSDAFNCCTFLSGFLLLAGTQDGNIYQLDVRSPRAPVQVIHRSGAPVLSLLSVRDGFIASQGDGSCFIVQQDLDYVTELTGADCDPVYKVATWEKQIYTCCRDGLVRRYQLSDL [PAAF1]
thermal stability score (HeLa Kyoto [1]; [5]): -0.462 | thermal stability score (HeLa Kyoto [1]; cell cycle stage: mitosis): -0.84 | solubility change mitosis (log2) (HeLa Kyoto [2]): -0.218 | solubility in G1/S (log2) (HeLa Kyoto [3]): -0.094 | melting temperature (HeLa Kyoto [4]; cell cycle stage: G1/S): 54 °C | melting temperature (HeLa Kyoto [4]; cell cycle stage: mitosis): 53.9 °C
